Experimental data from patent publication US20180344844A1 (SCHOLAR ROCK, published 2018).
Changes are numbered by the printed parent chain. In names and notes the source's numbering stands. Read-outs that look alike come from different tables or passages of the source. Blank lines part the entries; values can stand above or below the binder they belong to.

What was measured:
proGDF8 (human) [1] = target: T1, proGDF8 (human) (human, UniProt O14793 24-375); assay: cell-based or functional assay
proGDF8 (mouse) [2] = target: T2, proGDF8 (mouse) (mouse, UniProt O08689 25-376); assay: cell-based or functional assay
Pro Activin A [3] = target: T3, Pro Activin A (human, UniProt P08476 21-426); assay: ForteBio Octet BLI; biotinylated antigen on streptavidin tip, Ab1 in solution
T3 construct: domain: pro form (prodomain plus growth factor domain)
T3 sequence (looked up): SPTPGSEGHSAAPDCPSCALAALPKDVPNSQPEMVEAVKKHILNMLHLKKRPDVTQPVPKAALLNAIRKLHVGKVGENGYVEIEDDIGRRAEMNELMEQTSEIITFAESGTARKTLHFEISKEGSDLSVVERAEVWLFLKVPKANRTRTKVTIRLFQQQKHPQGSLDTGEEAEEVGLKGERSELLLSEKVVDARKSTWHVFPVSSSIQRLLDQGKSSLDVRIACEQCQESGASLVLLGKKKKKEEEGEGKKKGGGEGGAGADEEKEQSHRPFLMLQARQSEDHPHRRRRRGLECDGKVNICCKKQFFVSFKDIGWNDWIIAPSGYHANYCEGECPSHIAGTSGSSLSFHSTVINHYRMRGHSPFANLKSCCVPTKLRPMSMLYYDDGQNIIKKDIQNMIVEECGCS

proGDF11 (human) [4] = target: T4, proGDF11 (human) (human, UniProt O95390 25-407); assay: as above
T4 construct: domain: proGDF11 (prodomain plus growth factor domain)

Mature GDF11 [5] = target: T5, Mature GDF11 (UniProt O95390 299-407, limits assumed); assay: ForteBio Octet BLI; antigen on the tip (direct amine coupling), Ab1 in solution
T5 construct: mature; also called GDF11 mature growth factor

Mature Activin A [6] = target: T6, Mature Activin A (UniProt P08476 311-426); assay: as above
T6 construct: mature; also called Activin A growth factor
T6 sequence (looked up): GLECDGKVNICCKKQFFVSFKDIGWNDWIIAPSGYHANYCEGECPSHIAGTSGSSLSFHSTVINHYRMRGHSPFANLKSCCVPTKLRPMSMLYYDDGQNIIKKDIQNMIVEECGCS

BMP 9 [7] = target: T7, BMP 9 (UniProt Q9UK05 320-429, limits assumed); assay: as above
T7 construct: mature
T7 sequence (looked up): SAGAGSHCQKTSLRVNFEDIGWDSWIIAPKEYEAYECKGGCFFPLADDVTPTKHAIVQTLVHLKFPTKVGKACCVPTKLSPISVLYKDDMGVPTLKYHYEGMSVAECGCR

BMP10 [8] = target: T8, BMP10 (UniProt O95393 317-424, limits assumed); assay: as above
T8 construct: mature
T8 sequence (looked up): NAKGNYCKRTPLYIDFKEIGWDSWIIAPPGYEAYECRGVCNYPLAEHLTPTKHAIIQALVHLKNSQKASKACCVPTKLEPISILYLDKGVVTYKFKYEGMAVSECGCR

Mature TGFB1 [9] = target: T9, Mature TGFB1 (UniProt P01137 279-390); assay: as above
T9 construct: mature; also called mature TGFβ1

Mature GDF8 [10] = target: T10, Mature GDF8 (UniProt O14793 267-375, limits assumed); assay: as above
T10 construct: mature; Amine-coupled to the biosensor tips; also called mature myostatin; mature growth factor of Myostatin

proGDF11 (human) [11] = target: T4, proGDF11 (human); assay: ForteBio BLI; biotinylated proGDF11 on streptavidin tip, 30 µg/mL antibody, response after 5 minutes of association relative to proGDF8
Method: In this assay, biotinylated proGDF11 or biotinylated proMyostatin was immobilized on a ForteBio BLI streptavidin-coated sensor tip, which was applied to wells containing 30 μg/mL of antibody. Interactions of the analyte with the protein immobilized on the chip are measured by the magnitude of the response of the biosensor chip. The biosensor response after 5 minutes of association (a saturating signal for proGDF8) was compared between the two antigens, and expressed as the percent response for GDF8 binding.

proGDF8 (mouse) [12] = target: T2, proGDF8 (mouse); assay: cell-based or functional assay; remark: listed apart in the source
Mature GDF11 [13] = target: T5, Mature GDF11; assay: ForteBio Octet BLI; antigen on biosensor, antibody in solution
Method: (§1) Binding affinities of antibody candidates were determined using the FortéBio Octet QKe dip and read label free assay system utilizing bio-layer interferometry. Antigens were immobilized to biosensors (streptavidin-coated biosensors for proGDF8, proGDF11 and proActivin; direct amine coupling for all others) in each experiment and the antibodies/constructs were presented in solution at high concentration (50 μg/mL) to measure binding interactions.
(§2) Binding affinities of antibodies were determined using the FortéBio Octet QKe dip and read label free assay system utilizing bio-layer interferometry. Human proGDF8, latent GDF8, proGDF11 and proActivin were biotinylated and immobilized to streptavidin-coated biosensors (FortéBio). Mature growth factors were immobilized via direct amine coupling to amine reactive tips according to manufacturer's instructions (FortéBio). In each experiment, the antibodies/constructs were presented in solution at a single high concentration (50 μg/mL) to measure binding interactions.

Mature Activin A [14] = target: T6, Mature Activin A; assay: as above
Method: as §1, §2

BMP 9 [15] = target: T7, BMP 9; assay: as above
Method: as §1, §2

BMP10 [16] = target: T8, BMP10; assay: as above
Method: as §1, §2

Mature TGFB1 [17] = target: T9, Mature TGFB1; assay: as above
Method: as §1, §2

Pro Activin A [18] = target: T3, Pro Activin A; assay: as above
Method: as §1, §2

Mature GDF8 [19] = target: T10, Mature GDF8; assay: as above
Method: as §1, §2

proGDF8 (mouse) [20] = target: T2, proGDF8 (mouse); assay: cell-based or functional assay; remark: listed apart in the source
proGDF8 (human) [21] = target: T1, proGDF8 (human); assay: Octet binding kinetics to pro- and latent-Myostatin, compared with parental Ab1
latent GDF8 (human) = target: T11, latent GDF8 (human) (human, UniProt O14793 24-266; O14793 267-375); assay: as above
T11 construct: proGDF8 cleaved by a proprotein convertase; the split after 243 is inferred from that; also called human latent Myostatin; Human latent GDF8

B1: Ab9 (antibody, V domains shown)
VH: QVQLVQSGAEVKKPGSSVKVSCKASGGTFSSYAISWVRQAPGQGLEWMGGIIPIFGTANYAQKFQGRVTITADESTSTAYMELSSLRSEDTAVYYCANHGLMDDSSGYYLSNAFDIWGQGTMVTVSS
VL: not shown
Human proGDF8 IC50 (µM) Reporter assay (proGDF8 (human) [1]): 12.2 µM | Murine proGDF8 IC50 (µM) Reporter assay (proGDF8 (mouse) [2]): 19.9 µM

B4: Ab1 parental antibody, IgG4 (S228P), lambda (antibody, V domains shown)
VH: QIQLVQSGGGVVQPGRSLRLSCAASGFTFSSYGMHWVRQAPGKGLEWVAVISYDGSNKYYADSVKGRFTISRDNSKNTLYLQMNSLRAEDTAVYYCARDLLVRFLEWSHYYGMDVWGQGTTVTVSS
VL: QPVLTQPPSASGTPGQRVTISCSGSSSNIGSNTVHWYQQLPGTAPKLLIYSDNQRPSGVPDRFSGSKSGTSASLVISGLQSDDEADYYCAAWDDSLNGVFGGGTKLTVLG
notes: also called parental Ab1 IgG4; 24H4 (WT); copies: 2 + 2
binding result (Pro Activin A [3]): no binding (tested: 50 ug/mL) | binding result (proGDF11 (human) [4]): no binding (tested: 50 ug/mL) | binding result (Mature GDF11 [5]): no binding (tested: 50 ug/mL) | binding result (Mature Activin A [6]): no binding (tested: 50 ug/mL) | binding result (BMP 9 [7]): no binding (tested: 50 ug/mL) | binding result (BMP10 [8]): no binding (tested: 50 ug/mL) | binding result (Mature TGFB1 [9]): no binding (tested: 50 ug/mL) | binding result (Mature GDF8 [10]): no binding (tested: 50 ug/mL) | GDF11 response, expressed as a percentage of GDF8 response (proGDF11 (human) [11]): 1.33% | Activity Assay - 293T cells EC50 (proGDF8 (mouse) [12]): 839 nM

B5: Ab4 (Ab3 with germline framework residues), IgG4 (S228P), lambda (antibody, V domains shown)
VH: B4 VH with I2V, Q6E, T28A, N57I, Y110K
VL: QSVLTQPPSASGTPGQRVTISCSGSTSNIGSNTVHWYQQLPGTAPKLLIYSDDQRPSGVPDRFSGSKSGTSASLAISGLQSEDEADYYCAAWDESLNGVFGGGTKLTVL
notes: human IgG4/lambda framework with S228P; also called Ab4 germline
GDF11 response, expressed as a percentage of GDF8 response (proGDF11 (human) [11]): 2.51% | binding result (Mature GDF11 [13]): no binding (tested: 50 µg/mL) | binding result (Mature Activin A [14]): no binding (tested: 50 µg/mL) | binding result (BMP 9 [15]): no binding (tested: 50 µg/mL) | binding result (BMP10 [16]): no binding (tested: 50 µg/mL) | binding result (Mature TGFB1 [17]): no binding (tested: 50 µg/mL) | binding result (Pro Activin A [18]): no binding (tested: 50 µg/mL) | binding result (Mature GDF8 [19]): no binding (tested: 50 µg/mL) | Activity Assay - 293T cells EC50 (proGDF8 (mouse) [20]): 447 nM

B7: Ab5 (affinity optimized variant of Ab1, parental frameworks) (antibody, IgG4, V domains shown)
VH: B4 VH with T28A, S56N, Y110K
VL: QPVLTQPPSASGTPGQRVTISCSGSSSNIGGNTVHWYQQLPGTAPKLLIYSDDQRPSGVPDRFSGSKSGTSASLVISGLQSDDEADYYCAAWDESLNGVFGGGTKLTVLG
notes: also called Ab5 parental; copies: 2 + 2
binding result (proGDF8 (human) [21]): binds | binding result (latent GDF8 (human)): binds

B8: Ab6 (Ab5 with germline framework residues), IgG4 (S228P), lambda (antibody, V domains shown)
VH: B4 VH with I2V, Q6E, T28A, S56N, Y110K
VL: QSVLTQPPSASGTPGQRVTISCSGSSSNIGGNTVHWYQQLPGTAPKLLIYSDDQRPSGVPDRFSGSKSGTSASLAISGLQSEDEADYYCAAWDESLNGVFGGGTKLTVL
notes: human IgG4/lambda framework with S228P; also called Ab6 germline
GDF11 response, expressed as a percentage of GDF8 response (proGDF11 (human) [11]): 2.07% | binding result (Mature GDF11 [13]): no binding (tested: 50 µg/mL) | binding result (Mature Activin A [14]): no binding (tested: 50 µg/mL) | binding result (BMP 9 [15]): no binding (tested: 50 µg/mL) | binding result (BMP10 [16]): no binding (tested: 50 µg/mL) | binding result (Mature TGFB1 [17]): no binding (tested: 50 µg/mL) | binding result (Pro Activin A [18]): no binding (tested: 50 µg/mL) | binding result (Mature GDF8 [19]): no binding (tested: 50 µg/mL)

B9: Ab7 (antibody, V domains shown)
VH: QVQLQQSGAEVKKPGASVKVSCKASGYTFTSYYMHWVRQAPGQGLEWMGIINPSGGSTSYAQKFQGRVTMTRDTSTSTVYMELSSLRSEDTAVYYCARESLIRFLEDPQQGGMDVWGQGTTVTVSS
VL: QSALTQPASVSGSPGQSLTISCTGTSSDIGGYNYVSWYQQHPGKAPKLIIYDVTDRPSGVSGRFSGSKSGNTASLTISGLQTEDEAEYFCNSWTRSNNYIFGGGTKLTVLG
Human proGDF8 IC50 (µM) Reporter assay (proGDF8 (human) [1]): 0.983 µM | Murine proGDF8 IC50 (µM) Reporter assay (proGDF8 (mouse) [2]): 1.68 µM

More lines, now with the values ahead:

Human proGDF8 IC50 (µM) Reporter assay (proGDF8 (human) [1]): 0.772 µM
B2: Ab10 (antibody, V domains shown)
VH: EVQLVQSGGGVVQSGRSLRLSCVASGFSFSNYGMHWVRQAPGKGLEWLAFIWYDGSNKWYADSVKGRFTISRDNSKNALYLQMNSLRAEDTAVYYCARDRYSSSWGGGFDYWGQGTVLTVSS
VL: NFMLTQPHSVSESPGRTVTIPCSGRGGSIASDSVQWYQQRPGSAPTTIIYEDNQRPSGVPDRFSGSVDSSSNSASLTISGLRTEDEADYYCQSYDASSLWVFGGKTKLTVLG

Human proGDF8 IC50 (µM) Reporter assay (proGDF8 (human) [1]): 6.04 µM | Murine proGDF8 IC50 (µM) Reporter assay (proGDF8 (mouse) [2]): 139 µM
B3: Ab8 (antibody, V domains shown)
VH: QIQLVQSGAEVKKPGASVKVSCKASGYTFTSYGISWVRQAPGQGLEWMGWISAYNGNTNYAQKLQGRVTMTTDTSTSTAYMELSSLRSEDTAVYYCARVGFYDYVWGSYPYDAFDIWGQGTMVTVSS
VL: EIVMTQSPGTLSLSPGERATLSCRASQSVSSNYLAWYQQKPGQAPRLLIYDASNRATGIPARFSGSGSGTDFTLTISSLEPEDFALYYCQQYGTSPLTFGGGTKLEIKR

binding result (proGDF8 (human) [21]): binds | binding result (latent GDF8 (human)): binds
B6: Ab3 (affinity optimized variant of Ab1, parental frameworks) (antibody, IgG4, V domains shown)
VH: B4 VH with T28A, N57I, Y110K
VL: B7 VL with S26T, G31S
notes: also called Ab3 parental; copies: 2 + 2
